Patent US20150231240A1, “ANTI-C16ORF54 ANTIBODIES AND METHODS OF USE THEREOF” (priority 2012, published 2015)

T1: huC16orf54 (cells expressing C16orf54) (Homo sapiens, UniProt Q6UWD8)
T1 construct: expressed in transfected cells; host or cells: murine sarcoma cell line, retrovirally transduced (inferred from b529 and b531; b587 says only 'cells expressing C16orf54')
T1 sequence (Q6UWD8 1-224): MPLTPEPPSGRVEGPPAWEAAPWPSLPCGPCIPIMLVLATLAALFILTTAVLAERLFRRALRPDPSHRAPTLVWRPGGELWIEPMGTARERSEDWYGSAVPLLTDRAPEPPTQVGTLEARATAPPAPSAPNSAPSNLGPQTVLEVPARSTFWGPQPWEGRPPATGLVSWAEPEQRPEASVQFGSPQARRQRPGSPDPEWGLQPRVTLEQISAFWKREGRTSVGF

T2: N-terminal 32 amino acids of huC16orf54 (Homo sapiens, UniProt Q6UWD8)
T2 sequence (Q6UWD8 1-32 limits assumed): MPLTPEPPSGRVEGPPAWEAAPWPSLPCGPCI

T3: human C16orf54 extracellular domain peptides (Homo sapiens, UniProt Q6UWD8)
T3 sequence (Q6UWD8 1-31): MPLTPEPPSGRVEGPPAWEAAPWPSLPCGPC

T4: human C16orf54 (Homo sapiens, UniProt Q6UWD8)
T4 construct: expressed in transfected cells; host or cells: murine sarcoma cells (D42M1-huC16orf54)
T4 sequence (Q6UWD8 1-224): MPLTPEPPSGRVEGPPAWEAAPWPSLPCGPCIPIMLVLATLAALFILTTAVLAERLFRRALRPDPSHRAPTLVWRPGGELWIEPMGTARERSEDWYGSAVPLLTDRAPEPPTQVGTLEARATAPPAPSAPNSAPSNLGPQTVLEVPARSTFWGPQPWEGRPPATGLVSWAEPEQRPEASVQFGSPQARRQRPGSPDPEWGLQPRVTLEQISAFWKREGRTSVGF

T5: extracellular domain of c16orf54 (amino acids 1-31) fused to human IgG1 Fc (Homo sapiens, UniProt Q6UWD8)
T5 construct: the extracellular domain of c16orf54 (amino acids 1-31) either N terminal or C-terminal to a human IgG1 Fc domain; made in house; host or cells: 293 T cells, transient; Protein A purification
T5 sequence (Q6UWD8 1-31 limits assumed): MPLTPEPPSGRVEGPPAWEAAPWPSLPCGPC

B1: R29-8-58C: murine anti-C16orf54 monoclonal antibody; VH SEQ ID NO: 40, VL SEQ ID NO: 42 (antibody, V domains shown)
VH: MNFGFSLIFLVLVSKGVQCEVKLVESGGGLVKPGGSLKFSCAASGFTFSSYAVSWVRQTPEKRLEWVASITSGGRSYYPDSVKGRFTISRDNARSMLYLHMSSLRSEDTAMYYCTRGWDENDLWGQGTTLTVSS
VL: MKLPVRLLVLMFWIPASSSDVVMTQTPLSLFVSLGDQASISCRSSQSLLYSNGNTYLHWYLQRPGQSPQLLIYKVSNRFSGVPDRFSGSGSGTDFTLKISRVEAEDLGVYFCSQTTHVPWTFGGGTKLEIK
modifications: R29-8-58C heavy chain variable region; R29-8-58C light chain variable region
B2: R29-7-2A: murine anti-C16orf54 monoclonal antibody, IgG2b; VH SEQ ID NO: 4, VL SEQ ID NO: 6 (antibody, V domains shown)
VH: MLLGLKWVFFVVFYQGVPCEVQLVESGGGLIQPKGSLKLSCVASGFSFNTHAMNWVRQAPGKGLEWVARIRSKSNNYARYYADSVKDRFTISRDDSQSILYLQMNNLKTEDTAMYYCVKQGDGGFAYWGQGTLVTVSA
VL: MDSQAQVLMLLLLWVSGTCGDIVMSQSPSSLAVSVGEKVTMSCKSSQSLLYSSNQKNYLAWYQQRPGQSPKLLIYWASARESGVPDRFTGSGSGTDFTLTISSVKAEDLAVYYCQQYYSYPPTFGAGTKVELK
modifications: R29-7-2A heavy chain variable region; R29-7-2A light chain variable region
B3: R29-8-75B: murine anti-C16orf54 monoclonal antibody; VH SEQ ID NO: 56, VL SEQ ID NO: 58 (antibody, V domains shown)
VH: MDSRLNLVFLVLILKGVQCDVQLVESGGGLVQPGGSRKLSCAASGFTFSRFGMHWVRQAPEKGLEWVAYISSGSSTIYYADTVKGRFTISRDNPKNTLFLQMTSLRSEDTAMYYCARVDYDVALAYWGQGTLVTVSA
VL: MKLPVRLLVLMFWIPASSSGVLMTQTPLSLPVSLGDQASISCRSSQSIVHRNGNTYLEWYLQKPGQSPKLLIYKVSNRFSGVPDRFSGSGSGTDFTLKISRVEAEDLGVYYCFQGSQWTFGGGTKLEIK
modifications: R29-8-75B heavy chain variable region; R29-8-75B light chain variable region

Tests used:
cyno C16orf54 = assay: Flow cytometry cross-reactivity with sarcoma cells expressing cyno C16orf54 (fold change over isotype); type: binding, cynomolgous monkeys; conditions: 10 μg/ml antibody
Chain of cyno C16orf54 (as listed by the source): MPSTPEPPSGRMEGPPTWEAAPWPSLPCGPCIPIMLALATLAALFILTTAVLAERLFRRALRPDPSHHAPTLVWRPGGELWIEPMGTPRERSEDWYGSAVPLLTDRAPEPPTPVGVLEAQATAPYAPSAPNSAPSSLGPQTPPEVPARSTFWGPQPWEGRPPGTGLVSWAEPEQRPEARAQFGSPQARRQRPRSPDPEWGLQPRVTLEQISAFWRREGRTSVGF
Procedure: (§1) Anti-C16orf54 antibodies which bound to human C16orf54 were tested for their reactivity with human C16orf54 and their crossreactivity with C16orf54 from cynomolgous monkeys (cyno C16orf54) using flow cytometry. Sarcoma cells transfected with and expressing human C16orf54 or cyno C16orf54 were washed with PBS with 0.1% BSA, incubated with FcX receptor blocking solution (BioLegend) for 15 minutes, incubated with 10 μg/ml of anti-C16orf54 antibody for 1 hour at 4° C., washed twice with PBS with 0.1% BSA, incubated with 20 μg/ml of R-Phycoerythrin-AffiniPure F(ab′)2 Fragment Goat Anti-Mouse IgG, Fcγ Fragment Specific (Jackson ImmunoResearch) for 30 minutes at 4° C., washed twice with PBS with 0.1% BSA, incubated with the viability dye TO-PRO-3 iodide (Life Technologies), and immediately analyzed on a MACSQuant Analyzer instrument (Miltenyi). For each cell line and anti-C16orf54 antibody, a fold change was derived by dividing the median fluorescence intensity for Phycoerythrin in the live cell population for the anti-C16orf54 antibody by the median fluorescence intensity for Phycoerythrin in the live cell population for the IgG isotype control antibody.

[1] = target: T1, huC16orf54 (cells expressing C16orf54); assay: Competition ELISA to establish relative binding properties; conditions: hybridoma supernatant; 2 hours with competing mixture of antibodies of a different isotype
Procedure: Another competition ELISA was performed to establish relative binding properties. Individual anti-huC16orf54 isotyped (e.g., IgG2a) antibody containing hybridoma supernatants were allowed to bind to huC16orf54 in individual wells of an ELISA plate containing cells expressing C16orf54. After 30 min, the wells were washed. Then individual wells of the ELISA plate were incubated for 2 hours with either buffer or a competing mixture of anti-huC16orf54 isotyped antibodies (of a different isotype, e.g., IgG1 and IgG2b in the case of an IgG2a antibody). After washing, the wells were incubated with a specific secondary antibody (for example, Jackson Immunologicals Goat×IgG2a HRP—Product#115-035-206) and detected with SuperSignal® ELISA Pico Chemiluminescent substrate (Thermo Scientific—Product#37069). For each anti-huC16orf54 isotyped (e.g., IgG2a) antibody containing hybridoma supernatant, relative binding properties were calculated as follows: [(Average luminescence in wells incubated with buffer)−(Average luminescence in wells incubated with mixture of anti-huC16orf54 isotyped antibodies of a different isotype)]/[(Average luminescence in wells incubated with buffer)].

[2] = target: T2, N-terminal 32 amino acids of huC16orf54; assay: Off-rate screen of hybridoma supernatants on OctetQK384 (biolayer interferometry); type: binding; conditions: calculated off-rate
Procedure: Eight anti-huC16orf54 monoclonal antibodies were further screened for binding and subsequent off-rate analysis using the OctetQK384® sytem (ForteBio). Hybridoma supernatants were screened for association to and dissocation from streptavidin sensors coated with the N-terminal 32 amino acids of huC16orf54 coupled to biotin, and the calculated offrates (kdis) are shown in Table 31. Cloned hybridomas with […] off-rates were carried forward for antibody purification.

C16orf54 ECD peptides = assay: Peptide crossblocking (Table 36); type: binding
[3] = system: human C16orf54 extracellular domain peptides; assay: C16orf54 peptide ELISA, human extracellular domain peptides; type: binding; conditions: human, cyno, or mouse extracellular domain peptides, not told apart; 10 μg/ml antibody
Procedure: (§2) Anti-C16orf54 antibodies which bind to human C16orf54, including antibodies that are crossreactive with cyno C16orf54, were tested for their binding to various peptides derived from C16orf54 in a peptide ELISA. A 384-well high binding black microplate (Greiner) was incubated with 2 μg/ml of protein (human, cyno, or mouse extracellular domain peptides) for 16 hours, incubated for 1 hr with a blocking buffer (PBS with 5% Fetal Bovine Serum), washed four times with TBS with Tween, incubated for 1 hour with 10 μg/ml of anti-C16orf54 antibody, washed four times with TBS with Tween, incubated for 1 hour with 10 μg/ml of Peroxidase-AffiniPure Goat Anti-Mouse IgG, Fcγ Fragment Specific (Jackson ImmunoResearch), washed four times with TBS with Tween, and peroxidase was detected with a luminometer (Molecular Devices) upon addition of SuperSignal® ELISA Pico Chemiluminescent Substrate (Thermo Scientific). The luminescence signal was determined.

[4] = target: T3, human C16orf54 extracellular domain peptides; assay: as above; type: binding; conditions: peptide ELISA, 10 μg/ml antibody
Procedure: as §2

human C16orf54 = target: T4, human C16orf54; assay: Flow cytometry reactivity with sarcoma cells expressing human C16orf54 (fold change over isotype); type: binding
Procedure: as §1

[5] = system: KG-1 (acute myeloid leukemia) xenograft; type: in vivo, NOD-SCID mice
Procedure: Subcutaneous tumors are generated by injection of 1×10^7 cancer cells in a mixture of PBS (without magnesium or calcium) and BD Matrigel™ (BD Biosciences) at a 1:1 ratio in the right flank of female SCID or nu^−/− mice. The injected total volume per mouse is […] with 50% being Matrigel (BD Biosciences). Mice are randomized once tumors reach a size between 65-200 mm^3. Antibodies are administered weekly, and body weights and tumors are measured once and twice weekly, respectively. Tumor volume is calculated as described (van der Horst et al. (2009) Neoplasia 11: 355-364). As a negative control, mice are injected with either purified mouse IgG or PBS; or a purified monoclonal antibody that recognizes an antigen other than C16orf54.
Anti-C16orf54 antibodies were tested for their anti-tumor activity in an animal-tumor model. For these studies, the cell line KG-1 (acute myeloid leukemia) was obtained from ATCC and cultured according to the suppliers' protocols. Animals were obtained from Taconic (Hudson, N.Y.). Studies were conducted with anti-C16orf54 antibodies and antibody-drug conjugates (ADCs) of these antibodies.
In these experiments, 4-6 week-old immunodeficient NOD-SCID female mice were used for the KG-1 tumor model. Mice were subcutaneously injected on the right flank with 6×10^6 viable cells (KG-1) in a mixture of PBS (without magnesium or calcium) and BD Matrigel™ (BD Biosciences). Once the tumor reached a size between 65-200 mm^3 mice were randomized. Anti-C16orf54 antibodies were administered weekly, and bodyweights and tumors were measured once and twice weekly, respectively. Tumor volume was calculated as described (van der Horst et al., supra). Experiments were performed on groups of at least eight animals per experimental point.
Statistical significance between treatment and control groups was calculated using the Graphpad Prism® software package and applying Student's two-tailed t-test. A p-value of less than 0.05 was considered significant.

[6] = target: T2, N-terminal 32 amino acids of huC16orf54; assay: Affinity measurements of purified antibodies on OctetQK384; type: binding; conditions: purified antibody, streptavidin sensors coated with N-terminal 32 amino acids of huC16orf54 coupled to biotin
Procedure: Affinity measurements of purified anti-huC16orf54 antibodies were carried out on the OctetQK384® sytem (ForteBio). After coating streptavidin sensors with the N-terminal 32 amino acids of huC16orf54 coupled to biotin at the C-terminus, association and dissociation of purified anti-huC16orf54 antibodies was monitored. KD values were derived using ForteBio's software.

[7] = system: cyno C16orf54 extracellular domain peptides; assay: C16orf54 peptide ELISA, cyno extracellular domain peptides; type: binding; conditions: 10 μg/ml antibody
Chain of cyno C16orf54 extracellular domain peptides (as listed by the source): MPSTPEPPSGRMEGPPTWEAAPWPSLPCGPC
Procedure: as §2

[8] = target: T5, extracellular domain of c16orf54 (amino acids 1-31) fused to human IgG1 Fc; assay: C16orf54 peptide-Fc fusion protein ELISA; type: binding; conditions: serial dilution of antibody; HRP-conjugated anti mouse secondary
Procedure: Anti-C16orf54 antibodies which bind to human C16orf54, including antibodies that are crossreactive with cyno C16orf54, were tested for their binding to various peptides derived from C16orf54 that were fused to human IgG (e.g., IgG1) constant regions to generate various peptide-Fc fusion proteins in an Fc-based ELISA. An exemplary Fc sequence comprises an IgG1 Hinge region sequence and IgG1 CH3 and […] domain sequences.
The fusion proteins were transiently expressed in 293 T cells. Protein was purified from the 293 expression supernatants by Protein A-based affinity purification. Exemplary C16 peptide-Fc fusion constructs that were made and purified are shown with their protein yield in Table 38. ELISA assays were performed by coating 384 well plates with the fusion proteins overnight at 4C. Antibodies were analyzed by serial dilution with concentrations ranging from 40 ug/mL to […]. Binding was detected with an HRP-conjugated anti mouse secondary antibody.

Molecule | Median fold change relative to IgG control in F279-cyno-C16orf54 cells (cyno C16orf54) | relative binding properties: signal loss upon incubation with competition mixture [1] | kdis [2] | Peptide crossblocking (C16orf54 ECD peptides) | binding to peptides derived from the extracellular domain of C16orf54 (peptide ELISA) [3] | Human ECD & ECD fragments bound by antibody [4] | binding to C16orf54-expressing cells (dual binders) (human C16orf54) | binding to human C16orf54 (flow cytometry) (human C16orf54; sarcoma cells expressing human C16orf54, 10 μg/ml antibody) | tumor growth inhibition (in words) ([5]; KG-1 xenograft, compared to control IgG, antibodies weekly) | TGI (tumor growth inhibition) ([5]; Table 42, KG-1 AML model, NOD-SCID mice, weekly administration) | Mean (tumor volume) ([5]; Table 42, KG-1 AML model, NOD-SCID mice, weekly administration, in mm³ (unit assumed)) | kdis [6] | kon [6] | Cyno ECD bound by antibody [7] | binding to peptide-Fc fusion proteins (Fc-based ELISA) [8]
B1 | 1.4 |  |  |  |  |  |  |  |  |  |  |  |  |  | 
B2 |  | little signal loss upon incubation with the competition mixture | 0.00707 s⁻¹ | aa1-31 | bind to the various peptides derived from the extracellular domain (ECD) of C16orf54 | aa1-31, aa1-15, aa9-24 | bind to C16orf54-expressing cells | bind human C16orf54 | did not induce any statistically significant tumor growth inhibition | −17% | 2572.5 | 4.12e-05 ± 9.7e-06 s⁻¹ | 31900 ± 4600 M⁻¹ s⁻¹ |  | 
B3 |  |  |  | aa1-31, aa9-24 | bind to the various peptides derived from the extracellular domain (ECD) of C16orf54 | aa1-31, aa1-15, aa9-24 | bind to C16orf54-expressing cells |  |  |  |  |  |  | aa1-31 | able to bind to the peptide-Fc fusion proteins
